According to PMC3007124 (Nature cell biology, 2010):

T1: EYFP-LacI-PSP1 (UniProt Q8R326 1-523)
T1 sequence: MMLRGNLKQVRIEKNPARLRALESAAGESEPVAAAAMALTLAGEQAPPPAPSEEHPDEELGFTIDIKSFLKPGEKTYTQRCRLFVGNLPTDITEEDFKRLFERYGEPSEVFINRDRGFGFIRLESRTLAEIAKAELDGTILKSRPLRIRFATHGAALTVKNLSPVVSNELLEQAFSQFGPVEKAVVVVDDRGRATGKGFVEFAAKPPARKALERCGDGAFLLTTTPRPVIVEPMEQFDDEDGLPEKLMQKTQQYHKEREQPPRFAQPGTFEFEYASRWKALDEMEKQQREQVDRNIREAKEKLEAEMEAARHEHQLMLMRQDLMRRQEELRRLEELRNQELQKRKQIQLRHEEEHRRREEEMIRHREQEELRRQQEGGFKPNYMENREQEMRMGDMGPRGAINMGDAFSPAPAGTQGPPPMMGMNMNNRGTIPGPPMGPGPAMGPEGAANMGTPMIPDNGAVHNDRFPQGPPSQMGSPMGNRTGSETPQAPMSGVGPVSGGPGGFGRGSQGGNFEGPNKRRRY

T2: EYFP-LacI-PSF (UniProt Q8VIJ6 1-699)
T2 sequence: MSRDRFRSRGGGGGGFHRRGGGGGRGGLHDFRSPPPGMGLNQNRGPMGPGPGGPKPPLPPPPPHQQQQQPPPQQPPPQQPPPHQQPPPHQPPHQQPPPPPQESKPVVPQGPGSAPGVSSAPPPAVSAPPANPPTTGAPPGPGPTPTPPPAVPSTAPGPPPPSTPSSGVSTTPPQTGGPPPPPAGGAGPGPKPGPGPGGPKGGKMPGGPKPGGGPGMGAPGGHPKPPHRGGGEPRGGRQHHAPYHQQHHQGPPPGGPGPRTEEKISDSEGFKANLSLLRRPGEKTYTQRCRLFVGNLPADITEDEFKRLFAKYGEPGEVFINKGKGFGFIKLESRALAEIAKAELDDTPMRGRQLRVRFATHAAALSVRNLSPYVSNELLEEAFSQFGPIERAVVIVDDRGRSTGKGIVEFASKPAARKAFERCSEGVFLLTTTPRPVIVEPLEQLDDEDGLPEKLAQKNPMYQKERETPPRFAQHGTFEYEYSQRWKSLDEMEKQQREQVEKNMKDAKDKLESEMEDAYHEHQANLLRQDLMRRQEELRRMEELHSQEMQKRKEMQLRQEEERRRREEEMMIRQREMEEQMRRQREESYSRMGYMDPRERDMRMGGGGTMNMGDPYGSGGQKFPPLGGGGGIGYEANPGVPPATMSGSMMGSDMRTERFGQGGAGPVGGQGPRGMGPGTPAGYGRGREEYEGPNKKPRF


What was measured:
EYFP-LacI-PSP1 = target: T1, EYFP-LacI-PSP1; experiment: LacO/LacI tethering in cells, recruitment seen by fluorescence microscopy
EYFP-LacI-PSF = target: T2, EYFP-LacI-PSF; experiment: as above

Row | percent of cells with recruitment to the tethered protein (EYFP-LacI-PSP1) | percent of cells with recruitment to the tethered protein (EYFP-LacI-PSF) | Binder
1 | 87 % of the cells | – | mCherry-p54nrb (natural protein) MQSNKAFNLEKQNHTPRKHHQHHHQQHHQQQQQQQQQQPPPPIPANGQQASSQNEGLTIDLKNFRKPGEKTFTQRSRLFVGNLPPDITEEEMRKLFEKYGKAGEVFIHKDKGFGFIRLETRTLAEIAKVELDNMPLRGKQLRVRFACHSASLTVRNLPQYVSNELLEEAFSVFGQVERAVVIVDDRGRPSGKGIVEFSGKPAARKALDRCSEGSFLLTTFPRPVTVEPMDQLDDEEGLPEKLVIKNQQFHKEREQPPRFAQPGSFEYEYAMRWKALIEMEKQQQDQVDRNIKEAREKLEMEMEAARHEHQVMLMRQDLMRRQEELRRMEELHNQEVQKRKQLELRQEEERRRREEEMRRQQEEMMRRQQEGFKGTFPDAREQEIRMGQMAMGGAMGINNRGAMPPAPVPPGTPAPPGPATMMPDGTLGLTPPTTERFGQAATMEGIGAIGGTPPAFNRPAPGAEFAPNKRRRY
2 | – | 58 % of the cells | PSP2 (natural protein) MKIFVGNVDGADTTPEELAALFAPYGTVMSCAVMKQFAFVHMRENAGAVRAIEALHGHELRPGRALVVEMSRPRPLNTWKIFVGNVSAACTSQELRSLFERRGRVIECDVVKDYAFVHMEKEADAKAAIAQLNGKEVKGKRINVELSTKGQKKGPALAIQSGDKTKKPGAGDTAFPGTGGFSATFDYQQAFGNSTGGFDGQARQPTPPFFGRDRSPLRRSPPRASYVAPLTAQPATYRAQPSVSLGAAYRAQPSASLGVGYRTQPMAAQAASYRAQPSVSLGAPYRGQLASPSSQSAAASSLGPYGGVQPSASALSTYGGQAAAASSLNSYGAQGSSLASYGNQPSSYGAQAASSYGVRAAASSYNTQGAASSLGSYGAQAASYGAQSAASSLAYGAQAASYSAQPSASYSAQSAPYAAQQAASYSSQPAAYVAQPATAAAYASQPAAYAAQATTPMAGSYGAQPVVQTQLNSYGAQASIGLSGSYGAQSAAAATGSYGAAAAYGAQPSATLAAPYRTQSSASLAASYAAQQHPQAAASYRGQPGSAYDGTGQPSAAYLSMSQGAVANANSTPPPYERTRLSPPRASYDDPYKKAVAMSKRYGSDRRLAELSDYRRLSESQLSFRRSPTKSSLDYRRLPDAHSDYARYSGSYNDYLRAAQMHSGYQRRM
